In paper PMC6797079:

T1: NIS D237A, cerulean- or citrine-tagged, Q92911
T1 chain: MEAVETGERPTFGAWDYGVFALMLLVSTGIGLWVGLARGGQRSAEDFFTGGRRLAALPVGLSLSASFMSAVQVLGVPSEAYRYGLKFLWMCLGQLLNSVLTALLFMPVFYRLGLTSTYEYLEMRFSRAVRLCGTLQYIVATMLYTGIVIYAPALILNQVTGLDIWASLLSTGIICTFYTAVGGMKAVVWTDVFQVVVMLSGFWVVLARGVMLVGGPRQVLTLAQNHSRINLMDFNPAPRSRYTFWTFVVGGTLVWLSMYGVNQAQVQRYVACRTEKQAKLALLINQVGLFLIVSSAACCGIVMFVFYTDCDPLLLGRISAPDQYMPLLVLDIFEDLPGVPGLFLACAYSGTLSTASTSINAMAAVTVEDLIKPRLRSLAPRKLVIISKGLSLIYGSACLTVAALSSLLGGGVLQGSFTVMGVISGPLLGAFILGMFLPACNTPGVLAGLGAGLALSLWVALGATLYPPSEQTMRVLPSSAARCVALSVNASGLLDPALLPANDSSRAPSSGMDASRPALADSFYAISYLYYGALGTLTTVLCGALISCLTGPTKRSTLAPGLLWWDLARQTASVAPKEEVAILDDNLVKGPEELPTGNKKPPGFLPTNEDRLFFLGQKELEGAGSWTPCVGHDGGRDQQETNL

T2: NIS T243A, cerulean- or citrine-tagged, Q92911
T2 chain: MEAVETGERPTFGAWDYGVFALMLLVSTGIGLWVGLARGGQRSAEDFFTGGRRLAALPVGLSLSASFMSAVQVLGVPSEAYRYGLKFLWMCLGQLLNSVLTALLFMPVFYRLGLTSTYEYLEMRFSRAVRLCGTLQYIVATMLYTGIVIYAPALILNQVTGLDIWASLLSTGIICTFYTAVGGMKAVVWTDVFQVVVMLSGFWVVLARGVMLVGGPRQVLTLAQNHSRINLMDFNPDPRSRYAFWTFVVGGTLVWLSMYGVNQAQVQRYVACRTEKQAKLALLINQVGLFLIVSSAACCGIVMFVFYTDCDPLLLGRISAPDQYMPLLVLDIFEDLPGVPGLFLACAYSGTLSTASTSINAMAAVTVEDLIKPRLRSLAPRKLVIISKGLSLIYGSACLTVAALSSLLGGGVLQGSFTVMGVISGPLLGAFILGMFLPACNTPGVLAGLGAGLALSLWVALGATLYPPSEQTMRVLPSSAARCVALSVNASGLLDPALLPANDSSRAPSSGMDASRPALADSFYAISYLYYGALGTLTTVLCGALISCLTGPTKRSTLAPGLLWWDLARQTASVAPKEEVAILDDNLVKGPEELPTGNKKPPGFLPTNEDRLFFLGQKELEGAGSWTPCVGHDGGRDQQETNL

T3: NIS Y242A, cerulean- or citrine-tagged, Q92911
T3 chain: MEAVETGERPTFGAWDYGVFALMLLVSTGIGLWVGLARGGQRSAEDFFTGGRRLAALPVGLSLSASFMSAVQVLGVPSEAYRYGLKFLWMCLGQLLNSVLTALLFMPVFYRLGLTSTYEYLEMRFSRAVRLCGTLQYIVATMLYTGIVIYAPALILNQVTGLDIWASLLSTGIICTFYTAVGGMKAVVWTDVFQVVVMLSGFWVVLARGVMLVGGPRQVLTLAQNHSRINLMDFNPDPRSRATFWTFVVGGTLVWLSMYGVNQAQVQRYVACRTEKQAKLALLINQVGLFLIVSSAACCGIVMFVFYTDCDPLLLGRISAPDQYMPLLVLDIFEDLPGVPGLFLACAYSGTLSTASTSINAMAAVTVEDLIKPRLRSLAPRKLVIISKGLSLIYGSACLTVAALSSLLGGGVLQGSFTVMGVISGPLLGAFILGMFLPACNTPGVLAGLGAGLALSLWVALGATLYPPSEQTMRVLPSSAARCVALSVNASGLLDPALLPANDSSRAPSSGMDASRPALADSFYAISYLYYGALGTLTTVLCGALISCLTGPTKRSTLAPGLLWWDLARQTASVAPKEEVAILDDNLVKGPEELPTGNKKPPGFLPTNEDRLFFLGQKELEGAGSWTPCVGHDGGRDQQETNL


Experiments:
Assay in all cases: FRET
Details in all cases: chain shown with the change, n = 2, minimum of 20 cells analyzed in each n, read off a plot
[1] = biological target: T1, NIS D237A, cerulean- or citrine-tagged, …
[2] = biological target: T2, NIS T243A, cerulean- or citrine-tagged, …
[3] = biological target: T3, NIS Y242A, cerulean- or citrine-tagged, …

| response ([3]; HeLa cells, parent: est. 15) | response ([3]; SW1736 cells, parent: est. -10) | Binder | also measured |
| --- | --- | --- | --- |
|  |  | sodium/iodide symporter (NIS), wild type, cerulean- or citrine-tagged, Q92911 Cer:A525F; Cit:D237A (protein) MEAVETGERPTFGAWDYGVFALMLLVSTGIGLWVGLARGGQRSAEDFFTGGRRLAALPVGLSLSASFMSAVQVLGVPSEAYRYGLKFLWMCLGQLLNSVLTALLFMPVFYRLGLTSTYEYLEMRFSRAVRLCGTLQYIVATMLYTGIVIYAPALILNQVTGLDIWASLLSTGIICTFYTAVGGMKAVVWTDVFQVVVMLSGFWVVLARGVMLVGGPRQVLTLAQNHSRINLMDFNPDPRSRYTFWTFVVGGTLVWLSMYGVNQAQVQRYVACRTEKQAKLALLINQVGLFLIVSSAACCGIVMFVFYTDCDPLLLGRISAPDQYMPLLVLDIFEDLPGVPGLFLACAYSGTLSTASTSINAMAAVTVEDLIKPRLRSLAPRKLVIISKGLSLIYGSACLTVAALSSLLGGGVLQGSFTVMGVISGPLLGAFILGMFLPACNTPGVLAGLGAGLALSLWVALGATLYPPSEQTMRVLPSSAARCVALSVNASGLLDPALLPANDSSRAPSSGMDASRPALADSFYFISYLYYGALGTLTTVLCGALISCLTGPTKRSTLAPGLLWWDLARQTASVAPKEEVAILDDNLVKGPEELPTGNKKPPGFLPTNEDRLFFLGQKELEGAGSWTPCVGHDGGRDQQETNL | response ([1]; HeLa cells, parent: est. 15): 50; response ([1]; SW1736 cells, parent: est. -10): -180 |
|  |  | sodium/iodide symporter (NIS), wild type, cerulean- or citrine-tagged, Q92911 Cer:Q471A; Cit:T243A (protein) MEAVETGERPTFGAWDYGVFALMLLVSTGIGLWVGLARGGQRSAEDFFTGGRRLAALPVGLSLSASFMSAVQVLGVPSEAYRYGLKFLWMCLGQLLNSVLTALLFMPVFYRLGLTSTYEYLEMRFSRAVRLCGTLQYIVATMLYTGIVIYAPALILNQVTGLDIWASLLSTGIICTFYTAVGGMKAVVWTDVFQVVVMLSGFWVVLARGVMLVGGPRQVLTLAQNHSRINLMDFNPDPRSRYTFWTFVVGGTLVWLSMYGVNQAQVQRYVACRTEKQAKLALLINQVGLFLIVSSAACCGIVMFVFYTDCDPLLLGRISAPDQYMPLLVLDIFEDLPGVPGLFLACAYSGTLSTASTSINAMAAVTVEDLIKPRLRSLAPRKLVIISKGLSLIYGSACLTVAALSSLLGGGVLQGSFTVMGVISGPLLGAFILGMFLPACNTPGVLAGLGAGLALSLWVALGATLYPPSEATMRVLPSSAARCVALSVNASGLLDPALLPANDSSRAPSSGMDASRPALADSFYAISYLYYGALGTLTTVLCGALISCLTGPTKRSTLAPGLLWWDLARQTASVAPKEEVAILDDNLVKGPEELPTGNKKPPGFLPTNEDRLFFLGQKELEGAGSWTPCVGHDGGRDQQETNL | response ([2]; HeLa cells, parent: est. 15): -100; response ([2]; SW1736 cells, parent: est. -10): -330 |
| 120 | -50 | sodium/iodide symporter (NIS), wild type, cerulean- or citrine-tagged, Q92911 Cer:A525F; Cit:Y242A (protein) MEAVETGERPTFGAWDYGVFALMLLVSTGIGLWVGLARGGQRSAEDFFTGGRRLAALPVGLSLSASFMSAVQVLGVPSEAYRYGLKFLWMCLGQLLNSVLTALLFMPVFYRLGLTSTYEYLEMRFSRAVRLCGTLQYIVATMLYTGIVIYAPALILNQVTGLDIWASLLSTGIICTFYTAVGGMKAVVWTDVFQVVVMLSGFWVVLARGVMLVGGPRQVLTLAQNHSRINLMDFNPDPRSRYTFWTFVVGGTLVWLSMYGVNQAQVQRYVACRTEKQAKLALLINQVGLFLIVSSAACCGIVMFVFYTDCDPLLLGRISAPDQYMPLLVLDIFEDLPGVPGLFLACAYSGTLSTASTSINAMAAVTVEDLIKPRLRSLAPRKLVIISKGLSLIYGSACLTVAALSSLLGGGVLQGSFTVMGVISGPLLGAFILGMFLPACNTPGVLAGLGAGLALSLWVALGATLYPPSEQTMRVLPSSAARCVALSVNASGLLDPALLPANDSSRAPSSGMDASRPALADSFYFISYLYYGALGTLTTVLCGALISCLTGPTKRSTLAPGLLWWDLARQTASVAPKEEVAILDDNLVKGPEELPTGNKKPPGFLPTNEDRLFFLGQKELEGAGSWTPCVGHDGGRDQQETNL |  |
| -100 | -220 | sodium/iodide symporter (NIS), wild type, cerulean- or citrine-tagged, Q92911 Cer:Q471A; Cit:Y242A (protein) MEAVETGERPTFGAWDYGVFALMLLVSTGIGLWVGLARGGQRSAEDFFTGGRRLAALPVGLSLSASFMSAVQVLGVPSEAYRYGLKFLWMCLGQLLNSVLTALLFMPVFYRLGLTSTYEYLEMRFSRAVRLCGTLQYIVATMLYTGIVIYAPALILNQVTGLDIWASLLSTGIICTFYTAVGGMKAVVWTDVFQVVVMLSGFWVVLARGVMLVGGPRQVLTLAQNHSRINLMDFNPDPRSRYTFWTFVVGGTLVWLSMYGVNQAQVQRYVACRTEKQAKLALLINQVGLFLIVSSAACCGIVMFVFYTDCDPLLLGRISAPDQYMPLLVLDIFEDLPGVPGLFLACAYSGTLSTASTSINAMAAVTVEDLIKPRLRSLAPRKLVIISKGLSLIYGSACLTVAALSSLLGGGVLQGSFTVMGVISGPLLGAFILGMFLPACNTPGVLAGLGAGLALSLWVALGATLYPPSEATMRVLPSSAARCVALSVNASGLLDPALLPANDSSRAPSSGMDASRPALADSFYAISYLYYGALGTLTTVLCGALISCLTGPTKRSTLAPGLLWWDLARQTASVAPKEEVAILDDNLVKGPEELPTGNKKPPGFLPTNEDRLFFLGQKELEGAGSWTPCVGHDGGRDQQETNL |  |
